Assay results as given in US20140050720A1, “ULTRALONG COMPLEMENTARITY DETERMINING REGIONS AND USES THEREOF” (THE SCRIPPS RESEARCH INSTITUTE, priority 2012, published 2014).

Tests used:
Human mPB CD34+ cells = assay: Proliferative activity on human granulocyte progenitors (flow cytometry); assay type: cell-based; conditions: for Number of CD45RA− CD41−: 7 days
Protocol: Human mPB CD34^+ cells were purchased from AllCells. Cells were resuspended in HSC expansion medium (StemSpan SFEM, StemCell Technologies) supplemented with 1× antibiotics and the following recombinant human cytokines thrombopoietin, IL6, Flt3 ligand, and stem cell factor (100 ng/mL, R & D Systems), then plated in 96-well plates (1000 cells per well), with varied concentrations of BLV1H12-bGCSF fusion antibodies. Cells were cultured for 7 days at 37° C. in a 5% CO2 incubator, then analyzed by flow cytometry to measure cell number and expression of CD45ra and CD41. Cells were stained in staining medium (HBSS supplemented with 2% FBS and 2 mM EDTA) at 4° C. for 1 h with PECy7 anti-CD45ra and eFluor 450 anti-CD41 (eBiosciences), then washed with staining medium and analyzed. Multicolor analysis for cell phenotyping was performed on a LSR II flow cytometer (Becton Dickinson). FIGS. 10A-10E and Tables 9-10 show the human granulocyte progenitor cell proliferative activities of the Ab-GCSF fusion antibodies.

TF-1 cells = assay: Proliferation assay on TF-1 cells (AlamarBlue); assay type: cell-based; conditions: 72 h
Protocol: TF-1 cells were obtained from American Type Culture Collection (ATCC), VA, and cultured in RPMI-1640 medium supplemented with 10% fetal bovine serum (FBS), penicillin, streptomycin and 2 ng/mL granulocyte-macrophage colony-stimulating factor (GM-CSF). For proliferation assay, TF-1 cells were washed three times with RPMI-1640 medium and resuspended in RPMI-1640 medium with 10% FBS and penicillin and streptomycin at a density of 1.5×10^5 cells/ml. Cells were plated in 96-well plates and treated with varied concentrations of BLV1H12-hEPO fusion antibodies. After 72 h of incubation at 37° C. with 5% CO2, cells viabilities were measured using AlamarBlue (Invitrogen) assay following manufacture's instruction. FIG. 21 and Table 18 show the proliferative activity of Ab-hEPO fusion antibodies on TF1 cells.

Mouse NFS-60 cells = assay: Proliferation assay on mouse NFS-60 cells (AlamarBlue); assay type: cell-based; conditions: for F.I. (AlamarBlue fluorescence at 595 nm, cell viability): 72 hours
Protocol: Mouse NFS-60 cells were obtained from American Type Culture Collection (ATCC), VA, and cultured in RPMI-1640 medium supplemented with 10% fetal bovine serum (FBS), 0.05 mM 2-mercapoethanol and 62 ng/ml human macrophage colony stimulating factor (M-CSF). For proliferation assay, mouse NFS-60 cells were washed three times with RPMI-1640 medium and resuspended in RPMI-1640 medium with 10% FBS and 0.05 mM 2-mercapoethanol at a density of 1.5×10^5 cells/ml. In 96-well plates, 100 μl of cell suspension was added into each well, followed by the addition of varied concentrations of bGCSF, BLV1H12 antibody, and the immunoglobulin constructs described herein, Equal volume of PBS buffer was added into the control wells. The plates were incubated at 37° C. in a 5% CO2 incubator for 72 hours. Cells were then treated with AlamarBlue (Invitrogen) ( 1/10 volume of cell suspension) for 4 hours at 37° C. Fluorescence at 595 nm for each well was read to indicate the cell viability.

CXCR1-U2OS = target: T1, CXCR1-U2OS (Homo sapiens, UniProt P25024); assay: Flow cytometry binding to CXCR1 expressing cells; conditions: CXCR1-U2OS cells, cell culture supernatant containing expressed IgG, anti-Human Fc detection
T1 construct: host or cells: U2OS-derived CXCR1 cell line, purchased
T1 sequence (P25024 1-350): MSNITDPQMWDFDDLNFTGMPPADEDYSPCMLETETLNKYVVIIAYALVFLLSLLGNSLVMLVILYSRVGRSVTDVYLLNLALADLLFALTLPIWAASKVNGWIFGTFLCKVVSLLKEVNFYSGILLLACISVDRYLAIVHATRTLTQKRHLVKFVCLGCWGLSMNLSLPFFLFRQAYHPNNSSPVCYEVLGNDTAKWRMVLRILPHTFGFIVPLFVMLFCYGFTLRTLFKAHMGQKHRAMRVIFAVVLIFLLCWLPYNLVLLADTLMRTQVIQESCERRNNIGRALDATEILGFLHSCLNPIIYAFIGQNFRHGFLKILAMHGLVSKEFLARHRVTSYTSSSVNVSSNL
Protocol: Briefly, a cell line expressing functionally validated CXCR1 derived from U2OS cells was obtained from DiscoveRx and cultured per manufacturer's instructions (Cat#93-0226C3, DiscoveRx Corporation, Freemont, Calif.). The parental cell line U20S was obtained from ATCC and cultured under the same conditions as the CXCR1 cells. Cell culture supernatants from Example 2 above were then tested for binding to cells by flow cytometry. The adherent U20S or CXCR1-U20S cells were dissociated with Accutase (Innovative Cell Technologies, Inc., San Diego, Calif.), neutralized with an equal volume of media containing 10% serum, centrifuged at 1000 g, and resuspended in PBS with 2% BSA. Next, cells were dispensed into microtiter plates to achieve between 30,000 to 300,000 cells per well, centrifuged again, and resuspended in cell culture supernatant containing expressed IgG, or a dilution of IgG-containing cell culture supernatant. A fluorescent-conjugated anti-Human Fc antibody was used to detect binding of the expressedBLV1H12-IL8 fusion proteins to cells.

B1: Ab: bovine BLV1H12 antibody with ultralong CDR3, no inserted polypeptide; heavy chain SEQ ID NO: 24, light chain SEQ ID NO: 23 (antibody)
heavy: QVQLRESGPSLVKPSQTLSLTCTASGFSLSDKAVGWVRQAPGKALEWLGSIDTGGNTGYNPGLKSRLSITKDNSKSQVSLSVSSVTTEDSATYYCTSVHQETKKYQSCPDGYRERSDCSNRPACGTSDCCRVSVFGNCLTTLPVSYSYTYNYEWHVDVWGQGLLVTVSS
light: QAVLNQPSSVSGSLGQRVSITCSGSSSNVGNGYVSWYQLIPGSAPRTLIYGDTSRASGVPDRFSGSRSGNTATLTISSLQAEDEADYFCASAEDSSSNAVFGSGTTLTVLGQPKSPPSVTLFPPSTEELNGNKATLVCLISDFYPGSVTVVWKADGSTITRNVETTRASKQSNSKYAASSYLSLTSSDWKSKGSYSCEVTHEGSTVTKTVKPSECS
human granulocyte progenitor cell proliferative activity (Human mPB CD34+ cells): lack of proliferative activity | Number of CD45RA− CD41− (Human mPB CD34+ cells; 0.28959 ng/mL): 3666 | Number of CD45RA− CD41− (Human mPB CD34+ cells; 0.86877 ng/mL): 3839 | Number of CD45RA− CD41− (Human mPB CD34+ cells; 2.60631 ng/mL): 3852 | Number of CD45RA− CD41− (Human mPB CD34+ cells; 23.45679 ng/mL): 3519 | Number of CD45RA− CD41− (Human mPB CD34+ cells; 70.37037 ng/mL): 3541 | Number of CD45RA− CD41− (Human mPB CD34+ cells; 211.11111 ng/mL): 3606 | Number of CD45RA− CD41− (Human mPB CD34+ cells; 5700 ng/mL): 4100 | F.I. (AlamarBlue, cell viability) (TF-1 cells; 0.00236 nM): 4274.07 | F.I. (AlamarBlue, cell viability) (TF-1 cells; 0.01178 nM): 4267.586 | F.I. (AlamarBlue, cell viability) (TF-1 cells; 0.05888 nM): 3905.529 | F.I. (AlamarBlue, cell viability) (TF-1 cells; 0.2944 nM): 4091.452 | F.I. (AlamarBlue, cell viability) (TF-1 cells; 1.472 nM): 4109.106 | F.I. (AlamarBlue, cell viability) (TF-1 cells; 7.36 nM): 4071.234 | F.I. (AlamarBlue, cell viability) (TF-1 cells; 36.8 nM): 4100.011 | F.I. (AlamarBlue, cell viability) (TF-1 cells; 184 nM): 4413.497 | F.I. (AlamarBlue, cell viability) (TF-1 cells; 4.71E−04 nM): 4223.257 | F.I. (AlamarBlue, cell viability) (TF-1 cells; 9.42E−05 nM): 4108.119 | proliferative activity on mouse NFS-60 cells (Mouse NFS-60 cells): lack of proliferative activity | F.I. (AlamarBlue fluorescence at 595 nm, cell viability) (Mouse NFS-60 cells; 0.45725 ng/mL): 1040 | F.I. (AlamarBlue fluorescence at 595 nm, cell viability) (Mouse NFS-60 cells; 1.37174 ng/mL): 1010 | F.I. (AlamarBlue fluorescence at 595 nm, cell viability) (Mouse NFS-60 cells; 4.11523 ng/mL): 983.3 | F.I. (AlamarBlue fluorescence at 595 nm, cell viability) (Mouse NFS-60 cells; 12.34568 ng/mL): 971.8 | F.I. (AlamarBlue fluorescence at 595 nm, cell viability) (Mouse NFS-60 cells; 37.03704 ng/mL): 960.5 | F.I. (AlamarBlue fluorescence at 595 nm, cell viability) (Mouse NFS-60 cells; 111.11111 ng/mL): 991.83 | F.I. (AlamarBlue fluorescence at 595 nm, cell viability) (Mouse NFS-60 cells; 333.33333 ng/mL): 964.798 | Median Arbitrary Fluorescence Units (AFU) (CXCR1-U2OS): 4 AFU
